# Molecular target: 17b (CD4-induced human monoclonal antibody)
# Assay: flow cytometry of transfected 293T cells: staining with 10 μg/ml 17b with or without sCD4-183, detection with APC anti-human IgG F(ab')2, arithmetic mean APC fluorescence of live (propidium iodide negative) single cells; 'All titrations …
# Conditions: sCD4-183 at 0, 0.078125, 0.3125, 1.25, 5, 20, 80 μM (row value in value_extra.sCD4_183_uM), 20 min staining at room temperature, CAUTION: 17b staining of cell-surface trimers with sCD4, mostly reports trimer opening, normalized per Env, one titration each. Higher = more 17b staining of cell-surface Env. 17b's epitope is exposed, numbering: unknown, sequence starts at 1
# [1] = AUC over sCD4-183 0-80 μM, parent: 0.907, scale: area under the normalized MFI curve, log10 x-axis
# [2] = sCD4-183 0 μM, parent: 0.0187, scale: normalized MFI
# [3] = sCD4-183 0.078125 μM, parent: 0.0465, scale: normalized MFI
# [4] = sCD4-183 0.3125 μM, parent: 0.0578, scale: normalized MFI
# [5] = sCD4-183 1.25 μM, parent: 0.0973, scale: normalized MFI
# [6] = sCD4-183 5 μM, parent: 0.198, scale: normalized MFI
# [7] = sCD4-183 20 μM, parent: 0.585, scale: normalized MFI
# [8] = sCD4-183 80 μM, parent: 1, scale: normalized MFI
Substance,screen value [1],screen value [2],screen value [3],screen value [4],screen value [5],screen value [6],screen value [7],screen value [8]
"HIV-1 JR-CSF envelope glycoprotein gp160 (Env), P20871 JR-CSF_I323A",2.75,0.211,0.421,0.606,0.838,0.988,1,0.946
"HIV-1 JR-CSF envelope glycoprotein gp160 (Env), P20871 JR-CSF_E172A",,0.0468,0.104,0.136,0.175,0.305,0.636,1
"HIV-1 JR-CSF envelope glycoprotein gp160 (Env), P20871 JR-CSF_D167A",2.23,0.0723,0.181,0.357,0.663,0.945,0.977,1
"HIV-1 JR-CSF envelope glycoprotein gp160 (Env), P20871 JR-CSF_F210A",,0.0285,0.184,0.319,0.527,0.908,1,0.997
"HIV-1 JR-CSF envelope glycoprotein gp160 (Env), P20871 JR-CSF_F317A",3.03,0.358,0.582,0.76,0.878,0.942,0.988,1
"HIV-1 JR-CSF envelope glycoprotein gp160 (Env), P20871 JR-CSF_I309A",3.03,0.326,0.555,0.777,0.912,0.974,0.97,1
"HIV-1 JR-CSF envelope glycoprotein gp160 (Env), P20871 JR-CSF_P470A",1.6,0.119,0.215,0.298,0.381,0.492,0.645,1
"HIV-1 JR-CSF envelope glycoprotein gp160 (Env), P20871 JR-CSF_F176A",3.09,0.522,0.639,0.761,0.839,0.927,0.946,1
"HIV-1 JR-CSF envelope glycoprotein gp160 (Env), P20871 JR-CSF_G324A",2.77,0.248,0.463,0.601,0.836,0.959,0.96,1
"HIV-1 JR-CSF envelope glycoprotein gp160 (Env), P20871 JR-CSF_T202A",2.71,0.144,0.403,0.617,0.843,1,0.973,0.97
"HIV-1 JR-CSF envelope glycoprotein gp160 (Env), P20871 JR-CSF_N197K",2.29,0.116,0.231,0.402,0.643,0.91,1,0.993
"HIV-1 JR-CSF envelope glycoprotein gp160 (Env), P20871 JR-CSF_Y177A",2.87,0.317,0.576,0.719,0.858,0.82,0.942,1
